B1: mRAP-14c (peptide)
peptide: Biotin-GGSGGCEAKIEKHNHYQKQLEIAHEKLRHAESVGDGERVSRSREKHALLEGRTKELGYTVKKHGC
modifications: disulfide 6-65
notes: Cysteines at both ends are meant for cyclization by a disulfide bond
B2: mature RAP (full-length receptor-associated protein) (ligand)
chain: YSREKNQPKPSPKRESGEEFRMEKLNQLWEKAQRLHLPPVRLAELHADLKIQERDELAWKKLKLDGLDEDGEKEARLIRNLNVILAKYGLDGKKDARQVTSNSLSGTQEDGLDDPRLEKLWHKAKTSGKFSGEELDKLWREFLHHKEKVHEYNVLLETLSRTEEIHENVISPSDLSDIKGSVLHSRHTELKEKLRSINQGLDRLRRVSHQGYSTEAEFEEPRVIDLWDLAQSANLTDKELEAFREELKHFEAKIEKHNHYQKQLEIAHEKLRHAESVGDGERVSRSREKHALLEGRTKELGYTVKKHLQDLSGRISRARHNEL
notes: also called full-length RAP
B3: RAP d3 (ligand)
chain: GLDRLRRVSHQGYSTEAEFEEPRVIDLWDLAQSANLTDKELEAFREELKHFEAKIEKHNHYQKQLEIAHEKLRHAESVGDGERVSRSREKHALLEGRTKELGYTVKKHLQDLSGRISRARHNEL
notes: also called recombinant RAP d3
B4: RAP d3 E251K, K270E (ligand)
chain: B3 chain with E52K, K71E
notes: also called RAP E251K, K270E
B5: MegaRAP1 d3 (ligand)
chain: B3 chain with S14T, E18K, H50Y, E52K, K57A, K71E
notes: also called RAPv2A d3; RAP v2
B6: LRP1 CR3-5 (receptor)
chain: not shown
notes: domain: CR3-5; also called LRP1 CR domains
B7: MegaRAP1 d3 K217E (ligand)
chain: B3 chain with S14T, H50Y, E52K, K57A, K71E
notes: also called MegaRAP1 K217E
B8: RAP d3 E217K (ligand)
chain: B3 chain with E18K
notes: also called RAP E217K
B9: MegaRAP1 d3 K251E (ligand)
chain: B3 chain with S14T, E18K, H50Y, K57A, K71E
notes: also called MegaRAP1 K251E
B10: RAP d3 K256A, K270E (ligand)
chain: B3 chain with K57A, K71E
notes: also called RAP K256A, K270E
B11: RAP d3 E251K, K256A, K270E (ligand)
chain: B3 chain with E52K, K57A, K71E
notes: also called RAP E251K, K256A, K270E
B12: RAP d3 H249Y (ligand)
chain: B3 chain with H50Y
notes: also called RAP H249Y
B13: MegaRAP1 d3 T213S (ligand)
chain: B3 chain with E18K, H50Y, E52K, K57A, K71E
notes: also called MegaRAP1 T213S
B14: MegaRAP1 d3 Y249H (ligand)
chain: B3 chain with S14T, E18K, E52K, K57A, K71E
notes: also called MegaRAP1 Y249H
B15: RAP d3 K270E (ligand)
chain: B3 chain with K71E
notes: also called RAP K270E
B16: RAP d3 E251K (ligand)
chain: B3 chain with E52K
notes: also called RAP E251K
B17: MegaRAP1 d3 A256K (ligand)
chain: B3 chain with S14T, E18K, H50Y, E52K, K71E
notes: also called MegaRAP1 A256K
B18: LRP2 CR89 (receptor)
chain: not shown
notes: domain: CR89
B19: MegaRAP1 d3 A256K, E270K (ligand)
chain: B3 chain with S14T, E18K, H50Y, E52K
notes: also called MegaRAP1 A256K, E270K
B20: MegaRAP1 d3 K251E, E270K (ligand)
chain: B3 chain with S14T, E18K, H50Y, K57A
notes: also called MegaRAP1 K251E, E270K
B21: MegaRAP1 d3 E270K (ligand)
chain: B3 chain with S14T, E18K, H50Y, E52K, K57A
notes: also called MegaRAP1 E270K
B22: mRAP-8c (peptide)
peptide: GGSGGCGKHFEAKIEKHNHYQKQLEIAHEKLRHAESVGDGERVSRSREKHALLEGRTKELGYTVKKHLQDGC
modifications: N-terminal biotin (biotin-GGSGG)
notes: as for B1

Experiment [1] concerns the target T1, recombinant human LRP1 cluster II (R&D Systems, amino acids 786-1165, with C-terminal Fc tag) (human, UniProt Q07954 786-1165).
T1 construct: range 786-1165; Bought from R&D Systems; coated on plates; also called LRP1-C2; not shown: C-terminal Fc tag of the bought protein
T1 sequence (looked up): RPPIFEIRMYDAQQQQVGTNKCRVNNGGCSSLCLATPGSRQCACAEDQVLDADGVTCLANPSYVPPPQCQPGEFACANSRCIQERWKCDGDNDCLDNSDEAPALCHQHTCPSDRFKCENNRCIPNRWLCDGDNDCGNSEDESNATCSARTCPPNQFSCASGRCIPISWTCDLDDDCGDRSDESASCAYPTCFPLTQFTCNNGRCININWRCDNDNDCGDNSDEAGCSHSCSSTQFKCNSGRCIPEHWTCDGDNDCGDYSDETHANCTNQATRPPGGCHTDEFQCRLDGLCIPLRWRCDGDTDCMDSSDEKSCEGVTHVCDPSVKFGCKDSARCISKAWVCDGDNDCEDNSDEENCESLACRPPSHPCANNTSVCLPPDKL
The experiment in a line: solid phase binding assay, LRP1 cluster II-Fc coated on plate. The procedure: (§1) Control wells contained no added inhibitor. Wells were washed with TBS supplemented with 5 mM CaCl₂ and 0.05% Tween-20. […] Excess HRP conjugate was removed and wells washed. Color was developed using TMB reagents (BioRad, Hercules, Calif.).

The target of experiment [2] is T1, recombinant human LRP1 cluster II (R&D …). The experiment in a line: solid phase competition, EC50 against that of the mRAPc monomer. The procedure:
as §1

Experiment [3] shares this target. The description is as above. The procedure:
as §1
This is another data set of the same source.

Experiment [4] shares this target. The experiment is described as follows: solid phase competition, inhibition of 2 nM RAP d3 binding to immobilized LRP1-C2. The procedure:
as §1

Experiment [5] has the same target. The experiment in a line: solid phase competition, inhibitor preincubated with immobilized LRP1-C2, then 2 nM RAP d3. The procedure:
as §1

For experiment [6], the target named is B18. The experiment is described as follows: solid-phase binding, OD at highest concentration against highest OD of all ligands.
Experiment [7] has as its target B6. The description is as above.
In experiment [8] the target is B6. The experiment in a line: binding titration on LRP1 CR3-5, absorbance against nM of ligand.
Experiment [9] addresses B18. The experiment in a line: solid-phase binding (OD), single-site non-linear regression.
The target in experiment [10] is B3. The experiment is described as above.
Experiment [11] deals with B6. The description is as above.
The target in experiment [12] is B18. The experiment is described as follows: binding titration on LRP2 CR89, absorbance against nM of ligand.
Sequence of LRP2 CR89 (P98164 1025-1102 limits assumed): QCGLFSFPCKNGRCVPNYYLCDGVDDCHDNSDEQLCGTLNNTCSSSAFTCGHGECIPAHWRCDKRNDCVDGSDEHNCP
The target of experiment [13] is B3. The description is as above.

Positions count from the first letter of the chain named. Names and notes keep the numbering of the source. Like-named read-outs stand apart in the source and are kept apart here. Bridge positions count the residues as written; N and C are the ends. * marks the point of attachment. Biotin = O=C1N[C@H]2[C@H](CS[C@H]2CCCCC(=O)*)N1

As usually defined, the Kd is the concentration at which binding is half-saturated. As for B1, the Kd in experiment [1] is ~21 nM.
Broadly, the EC50 is the concentration at which the effect is half-maximal. For the molecule B2, the relative to monomer in [2] was found to be 36 fold; in [3], 40 fold. Also, the EC50 was found to be 0.8 nM in experiment [4] and 0.5 nM in experiment [5].
Consider B3, for which the “% max (percent of maximum binding)” value worked out at 5% with LRP2 CR89 [6] and 76% in the experiment with LRP1 CR3-5 [7].
As to B4, the binding result with LRP1 CR3-5 [8] is “no binding (tested: 100 nM)”. The “% max (percent of maximum binding)” value with LRP2 CR89 [6] is 2%; with LRP1 CR3-5 [7], 4%.
Molecule B5 registered a dissociation constant (Kd) with LRP2 CR89 [9] of 38 nM. Further, the binding result in the experiment with LRP1 CR3-5 [8] is “no binding (tested: 100 nM)”. Moreover, the results for the “% max (percent of maximum binding)” value in the experiment with LRP2 CR89 [6] and with LRP1 CR3-5 [7] were 88% and 4%, respectively.
As for B6, the affinity in the experiment with RAP d3 [10], expressed as Kd, was 16 nM.
B7 displayed an equilibrium dissociation constant (Kd) with LRP2 CR89 [9] of 25 nM. In the experiment with LRP1 CR3-5 [8], the binding result is “no binding (tested: 100 nM)”. For the same molecule, the “% max (percent of maximum binding)” value came out at 88% with LRP2 CR89 [6] and 2% with LRP1 CR3-5 [7].
In the experiment with LRP1 CR3-5 [11], B8 returned a Kd of 9 nM. In the experiment with LRP2 CR89 [12], the binding result is “no binding (tested: 100 nM)”. The “% max (percent of maximum binding)” value with LRP2 CR89 [6] came out at 5%; with LRP1 CR3-5 [7], 91%.
Turning to B9, in the experiment with LRP1 CR3-5 [8], the binding result was “no binding (tested: 100 nM)”. Further, the “% max (percent of maximum binding)” value in the experiment with LRP2 CR89 [6] amounted to 11%; in the experiment with LRP1 CR3-5 [7], 2%.
As for B10, the binding result with LRP2 CR89 [12] and with LRP1 CR3-5 [8] was “no binding (tested: 100 nM)” each time. Moreover, the figures for the “% max (percent of maximum binding)” value with LRP2 CR89 [6] and with LRP1 CR3-5 [7] were 3% and 2%, respectively.
For B11, binding in the experiment with LRP2 CR89 [9] was put at a Kd of 114 nM. In addition, the binding result in the experiment with LRP1 CR3-5 [8] was “no binding (tested: 100 nM)”. In addition, the “% max (percent of maximum binding)” value was 40% with LRP2 CR89 [6] and 2% with LRP1 CR3-5 [7].
B12: the Kd in the experiment with LRP1 CR3-5 [11] is 28 nM. Besides, in the experiment with LRP2 CR89 [12], the binding result is given as “no binding (tested: 100 nM)”. The “% max (percent of maximum binding)” value with LRP2 CR89 [6] came out at 2%; in the experiment with LRP1 CR3-5 [7], 90%.
In the case of B13, in the experiment with LRP2 CR89 [9], the dissociation constant Kd is 19 nM. Also, the binding result with LRP1 CR3-5 [8] is “no binding (tested: 100 nM)”. Besides, the “% max (percent of maximum binding)” value turned out to be 94% in the experiment with LRP2 CR89 [6] and 2% in the experiment with LRP1 CR3-5 [7].
As to B14, the binding result in the experiment with LRP1 CR3-5 [8] is “no binding (tested: 100 nM)”. For the same molecule, the “% max (percent of maximum binding)” value with LRP2 CR89 [6] turned out to be 35%; in the experiment with LRP1 CR3-5 [7] it was 2%.
B15: the binding result in the experiment with LRP2 CR89 [12] and with LRP1 CR3-5 [8] was “no binding (tested: 100 nM)” each time. The “% max (percent of maximum binding)” value with LRP2 CR89 [6] was 2%; with LRP1 CR3-5 [7] it was 4%.
In the experiment with LRP1 CR3-5 [11], B16 had a dissociation constant Kd of 7 nM. In the experiment with LRP2 CR89 [12], the binding result is on record as “no binding (tested: 100 nM)”. The figures for the “% max (percent of maximum binding)” value with LRP2 CR89 [6] and with LRP1 CR3-5 [7] were 5% and 100%, respectively.
For B17, the binding result with LRP2 CR89 [12] and in the experiment with LRP1 CR3-5 [8] was “no binding (tested: 100 nM)” in each case. The results for the “% max (percent of maximum binding)” value with LRP2 CR89 [6] and with LRP1 CR3-5 [7] were 2% and 6%, respectively.
Consider B18, for which the binding result in the experiment with RAP d3 [13] was “no binding (tested: 100 nM)”.
Turning to B19, the Kd in the experiment with LRP2 CR89 [9] was 72 nM; in the experiment with LRP1 CR3-5 [11], 4 nM. For the same molecule, the “% max (percent of maximum binding)” value stood at 73% in the experiment with LRP2 CR89 [6] and 93% in the experiment with LRP1 CR3-5 [7].
Consider B20, for which, in the experiment with LRP2 CR89 [9], the Kd amounted to 153 nM. The “% max (percent of maximum binding)” value with LRP2 CR89 [6] and in the experiment with LRP1 CR3-5 [7] was 16% in each case.
As for B21, the Kd in the experiment with LRP2 CR89 [9] worked out at 8 nM; with LRP1 CR3-5 [11], 114 nM. The “% max (percent of maximum binding)” value worked out at 100% with LRP2 CR89 [6] and 85% with LRP1 CR3-5 [7].
In the case of B22, the Kd in experiment [1] was ~4 nM.

(Values after patent US20120251444A1 (RAPTOR PHARMACEUTICALS, published 2012).)
